The values that follow come from paper PMC8482478, “N-acetylmannosamine-6-phosphate 2-epimerase uses a novel substrate-assisted mechanism to catalyze amino sugar epimerization” (The Journal of Biological Chemistry, 2021).

This data set concerns the molecule itself. Briefly: AUC; sedimentation velocity, 0.5 mg/ml SaNanE in 20 mM Tris pH 8.0, 150 mM NaCl, 50,000 rpm, 20 °C; c(s) and c(M) models in SEDFIT.

B1: N-acetylmannosamine-6-phosphate 2-epimerase (NanE) from Staphylococcus aureus, wildtype (enzyme, S. aureus USA300)
chain: MLPHGLIVSCQALPDEPLHSSFIMSKMALAAYEGGAVGIRANTKEDILAIKETVDLPVIGIVKRDYDHSDVFITATSKEVDELIESQCEVIALDATLQQRPKETLDELVSYIRTHAPNVEIMADIATVEEAKNAARLGFDYIGTTLHGYTSYTQGQLLYQNDFQFLKDVLQSVDAKVIAEGNVITPDMYKRVMDLGVHCSVVGGAITRPKEITKRFVQIMED
notes: N-acetylmannosamine-6-phosphate 2-epimerase (NanE) of S. aureus USA300; also called SaNanE; wildtype SaNanE
Consider B1, for which the “stoichiometry N” value came out at 2.
